This passage reports EC50 results from patent US20240124607A1.

This test deals with human CEACAM5 on cells (human) (UniProt P06731). The experiment in a line: flow cytometry, hCEACAM5-B16F10 cells. Background: In flow cytometry, cells or beads pass a laser one at a time.
Sequence of human CEACAM5 on cells (human) (P06731 35-685 limits assumed): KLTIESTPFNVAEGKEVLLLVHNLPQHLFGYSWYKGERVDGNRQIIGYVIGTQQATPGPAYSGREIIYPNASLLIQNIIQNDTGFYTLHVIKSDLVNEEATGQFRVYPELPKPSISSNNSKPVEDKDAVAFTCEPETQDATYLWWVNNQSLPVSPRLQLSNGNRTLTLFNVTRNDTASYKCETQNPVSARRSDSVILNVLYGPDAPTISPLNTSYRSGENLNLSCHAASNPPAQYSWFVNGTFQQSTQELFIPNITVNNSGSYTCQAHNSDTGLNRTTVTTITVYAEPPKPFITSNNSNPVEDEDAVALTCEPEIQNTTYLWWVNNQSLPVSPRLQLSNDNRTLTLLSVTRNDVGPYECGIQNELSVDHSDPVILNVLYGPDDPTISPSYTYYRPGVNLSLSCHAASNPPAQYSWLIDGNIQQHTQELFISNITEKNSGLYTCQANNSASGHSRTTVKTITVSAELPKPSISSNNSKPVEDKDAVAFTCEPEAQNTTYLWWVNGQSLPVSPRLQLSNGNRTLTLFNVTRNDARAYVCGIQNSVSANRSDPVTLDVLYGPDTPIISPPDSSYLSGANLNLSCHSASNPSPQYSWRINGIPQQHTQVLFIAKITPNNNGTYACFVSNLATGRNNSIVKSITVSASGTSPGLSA

B1: mAB0621 mouse surrogate duobody TriNKET (bispecific antibody, part only; not given: NKG2D arm, mouse constant regions, V domains shown, part only)
VH: QVQLVQSGAEVKKPGASVKVSCKASGYTFTAYTIHWVRQAPGQCLEWMGYINPSSGYTEYNQKFKDRTTLTADTSISTAYMELSRLRSDDTAVYYCTREGGLLWFDYWGQGTLVTVSS
VL: DIVMTQSPDSLAVSLGERATINCKSSHSLLYGNFQNNYLAWYQQKPGQPPKLLIYWASTRESGVPDRFSGSGSGTDFTLTISSLQAEDVAVYYCQQYYSYPYTFGCGTKLEIK
For the molecule B1, the EC50 came to 21.8 nM.

One may read the EC50 as the concentration at which the effect is half-maximal. Low values mean higher potency in that assay, high ones lower potency in that assay.
